Here are results for two substances from PMC3580387.

The assay addresses mCherry-Actin (UniProt P60709). Briefly: FRET or BRET.

Consider “Venus-IQGAP1 (Venus fused to human IQGAP1) (from UniProt P46940 1-1657) (natural protein)”, for which the mean E% (FRET efficiency), Case 1 ROIs stood at 29.6%; the mean E% (FRET efficiency), Case 2 ROIs is 25.4%; the mean E% (FRET efficiency), Case 3 ROIs was determined as 39.3%.

On to “TFP-N-WASP (Teal fluorescent protein fused to human N-WASP) (from UniProt O00401 1-505) (natural protein)”, for which the mean E% (FRET efficiency), Case 1 ROIs turned out to be 20.3%; the mean E% (FRET efficiency), Case 2 ROIs came out at 27.9%; the mean E% (FRET efficiency), Case 4 ROIs amounted to 25.2%.
